biological target: VEGF (VEGF 1-165 aa, R&D Systems 293-VE-010) (UniProt P15692 27-191); experiment: Direct bind ELISA, VEGF coated on plate;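 note: ELISA screening of antibodies for binding to the plate-coated target antigen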
Sequence (P15692 other isoform, or with tags, fused parts or gaps limits assumed): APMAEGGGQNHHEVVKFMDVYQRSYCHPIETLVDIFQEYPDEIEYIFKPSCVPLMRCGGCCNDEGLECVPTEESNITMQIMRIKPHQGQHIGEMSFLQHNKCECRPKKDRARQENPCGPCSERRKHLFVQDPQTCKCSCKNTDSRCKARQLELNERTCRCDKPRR

Binder | EC50
DVD445 (bispecific antibody, IgG1, DVD-Ig, outer AB069 / inner AB071; HC linker short, LC linker short; also called DVD445H; DVD445L) VH: QVQLVQSGAEVKKPGASVKISCKASGYSFTAYYIHWVKQAPGQGLEWIGYISSYNGATNYNQKFKGRVTFTTDTSTSTAYMELRSLRSDDTAVYYCARDYDYDVGMDYWGQGTLVTVSSASTKGPEVQLVESGGGLVQPGGSLRLSCAASGFTINASWIHWVRQAPGKGLEWVGAIYPYSGYTNYADSVKGRFTISADTSKNTAYLQMNSLRAEDTAVYYCARWGHSTSPWAMDYWGQGTLVTVSS VL: DIVMTQSPDSLAVSLGERATISCRASESVDNYGISFMKWFQQKPGQPPKLLIYAASNQGSGVPDRFSGSGSGTDFTLTISSLQAEDVAVYYCQQSKEVPWTFGGGTKVEIKRTVAAPDIQMTQSPSSLSASVGDRVTITCRASQVIRRSLAWYQQKPGKAPKLLIYAASNLASGVPSRFSGSGSGTDFTLTISSLQPEDFATYYCQQSNTSPLTFGQGTKVEIKR | 14.5 µM
DVD463 (bispecific antibody, IgG1, DVD-Ig, outer AB069 / inner AB071; HC linker short, LC linker long; also called DVD463H; DVD463L) VH: QVQLVQSGAEVKKPGASVKISCKASGYSFTAYYIHWVKQAPGQGLEWIGYISSYNGATNYNQKFKGRVTFTTDTSTSTAYMELRSLRSDDTAVYYCARDYDYDVGMDYWGQGTLVTVSSASTKGPEVQLVESGGGLVQPGGSLRLSCAASGFTINASWIHWVRQAPGKGLEWVGAIYPYSGYTNYADSVKGRFTISADTSKNTAYLQMNSLRAEDTAVYYCARWGHSTSPWAMDYWGQGTLVTVSS VL: DIVMTQSPDSLAVSLGERATISCRASESVDNYGISFMKWFQQKPGQPPKLLIYAASNQGSGVPDRFSGSGSGTDFTLTISSLQAEDVAVYYCQQSKEVPWTFGGGTKVEIKRTVAAPSVFIFPPDIQMTQSPSSLSASVGDRVTITCRASQVIRRSLAWYQQKPGKAPKLLIYAASNLASGVPSRFSGSGSGTDFTLTISSLQPEDFATYYCQQSNTSPLTFGQGTKVEIKR | 1.73 µM
DVD457 (bispecific antibody, IgG1, DVD-Ig, outer AB069 / inner AB071; HC linker long, LC linker short; also called DVD457H; DVD457L) VH: QVQLVQSGAEVKKPGASVKISCKASGYSFTAYYIHWVKQAPGQGLEWIGYISSYNGATNYNQKFKGRVTFTTDTSTSTAYMELRSLRSDDTAVYYCARDYDYDVGMDYWGQGTLVTVSSASTKGPSVFPLAPEVQLVESGGGLVQPGGSLRLSCAASGFTINASWIHWVRQAPGKGLEWVGAIYPYSGYTNYADSVKGRFTISADTSKNTAYLQMNSLRAEDTAVYYCARWGHSTSPWAMDYWGQGTLVTVSS VL: DIVMTQSPDSLAVSLGERATISCRASESVDNYGISFMKWFQQKPGQPPKLLIYAASNQGSGVPDRFSGSGSGTDFTLTISSLQAEDVAVYYCQQSKEVPWTFGGGTKVEIKRTVAAPDIQMTQSPSSLSASVGDRVTITCRASQVIRRSLAWYQQKPGKAPKLLIYAASNLASGVPSRFSGSGSGTDFTLTISSLQPEDFATYYCQQSNTSPLTFGQGTKVEIKR | 1.48 µM
DVD443 (bispecific antibody, IgG1, HC linker short, LC linker short; also called DVD443H; DVD443L) VH: QVQLVQSGAEVKKPGASVKISCKASGYSFTAYYIHWVKQAPGQGLEWIGYISSYNGATNYNQKFKGRVTFTTDTSTSTAYMELRSLRSDDTAVYYCARDYDYDVGMDYWGQGTLVTVSSASTKGPEVQLVESGGGLVQPGGSLRLSCAASGFTISDYWIHWVRQAPGKGLEWVAGITPAGGYTYYADSVKGRFTISADTSKNTAYLQMNSLRAEDTAVYYCARFVFFLPYAMDYWGQGTLVTVSS VL: DIVMTQSPDSLAVSLGERATISCRASESVDNYGISFMKWFQQKPGQPPKLLIYAASNQGSGVPDRFSGSGSGTDFTLTISSLQAEDVAVYYCQQSKEVPWTFGGGTKVEIKRTVAAPDIQMTQSPSSLSASVGDRVTITCRASQDVSTAVAWYQQKPGKAPKLLIYSASFLYSGVPSRFSGSGSGTDFTLTISSLQPEDFATYYCQQSYTTPPTFGQGTKVEIKR | 0.611 µM
DVD451 (bispecific antibody, IgG1, DVD-Ig, outer AB069 / inner AB071; HC linker long, LC linker long; also called DVD451H; DVD451L) VH: QVQLVQSGAEVKKPGASVKISCKASGYSFTAYYIHWVKQAPGQGLEWIGYISSYNGATNYNQKFKGRVTFTTDTSTSTAYMELRSLRSDDTAVYYCARDYDYDVGMDYWGQGTLVTVSSASTKGPSVFPLAPEVQLVESGGGLVQPGGSLRLSCAASGFTINASWIHWVRQAPGKGLEWVGAIYPYSGYTNYADSVKGRFTISADTSKNTAYLQMNSLRAEDTAVYYCARWGHSTSPWAMDYWGQGTLVTVSS VL: DIVMTQSPDSLAVSLGERATISCRASESVDNYGISFMKWFQQKPGQPPKLLIYAASNQGSGVPDRFSGSGSGTDFTLTISSLQAEDVAVYYCQQSKEVPWTFGGGTKVEIKRTVAAPSVFIFPPDIQMTQSPSSLSASVGDRVTITCRASQVIRRSLAWYQQKPGKAPKLLIYAASNLASGVPSRFSGSGSGTDFTLTISSLQPEDFATYYCQQSNTSPLTFGQGTKVEIKR | 2.4 µM
DVD483 (bispecific antibody, IgG1, HC linker short, LC linker long; also called DVD483H; DVD483L) VH: EVQLVESGGGLVQPGGSLRLSCAASGFTFTDNWISWVRQAPGKGLEWVGYISPNSGFTYYADSVKGRFTISADTSKNTAYLQMNSLRAEDTAVYYCARDNFGGYFDYWGQGTLVTVSSASTKGPEVQLVESGGGLVQPGGSLRLSCAASGFTISDYWIHWVRQAPGKGLEWVAGITPAGGYTYYADSVKGRFTISADTSKNTAYLQMNSLRAEDTAVYYCARFVFFLPYAMDYWGQGTLVTVSS VL: DIQMTQSPSSLSASVGDRVTITCRASQDVSTAVAWYQQKPGKAPKLLIYSASFLYSGVPSRFSGSGSGTDFTLTISSLQPEDFATTYYCQQSYTGTVTFGQGTKVEIKRTVAAPSVFIFPPDIQMTQSPSSLSASVGDRVTITCRASQDVSTAVAWYQQKPGKAPKLLIYSASFLYSGVPSRFSGSGSGTDFTLTISSLQPEDFATYYCQQSYTTPPTFGQGTKVEIKR | 0.0461 µM

The next binders have a lower EC50 than those just listed; values first:

EC50 | Binder
0.0215 µM | DVD458 (bispecific antibody, IgG1, DVD-Ig, outer AB071 / inner AB069; HC linker long, LC linker short; also called DVD458H; DVD458L) VH: EVQLVESGGGLVQPGGSLRLSCAASGFTINASWIHWVRQAPGKGLEWVGAIYPYSGYTNYADSVKGRFTISADTSKNTAYLQMNSLRAEDTAVYYCARWGHSTSPWAMDYWGQGTLVTVSSASTKGPSVFPLAPQVQLVQSGAEVKKPGASVKISCKASGYSFTAYYIHWVKQAPGQGLEWIGYISSYNGATNYNQKFKGRVTFTTDTSTSTAYMELRSLRSDDTAVYYCARDYDYDVGMDYWGQGTLVTVSS VL: DIQMTQSPSSLSASVGDRVTITCRASQVIRRSLAWYQQKPGKAPKLLIYAASNLASGVPSRFSGSGSGTDFTLTISSLQPEDFATYYCQQSNTSPLTFGQGTKVEIKRTVAAPDIVMTQSPDSLAVSLGERATISCRASESVDNYGISFMKWFQQKPGQPPKLLIYAASNQGSGVPDRFSGSGSGTDFTLTISSLQAEDVAVYYCQQSKEVPWTFGGGTKVEIKR
0.0193 µM | DVD464 (bispecific antibody, IgG1, DVD-Ig, outer AB071 / inner AB069; HC linker short, LC linker long; also called DVD464H; DVD464L) VH: EVQLVESGGGLVQPGGSLRLSCAASGFTINASWIHWVRQAPGKGLEWVGAIYPYSGYTNYADSVKGRFTISADTSKNTAYLQMNSLRAEDTAVYYCARWGHSTSPWAMDYWGQGTLVTVSSASTKGPQVQLVQSGAEVKKPGASVKISCKASGYSFTAYYIHWVKQAPGQGLEWIGYISSYNGATNYNQKFKGRVTFTTDTSTSTAYMELRSLRSDDTAVYYCARDYDYDVGMDYWGQGTLVTVSS VL: DIQMTQSPSSLSASVGDRVTITCRASQVIRRSLAWYQQKPGKAPKLLIYAASNLASGVPSRFSGSGSGTDFTLTISSLQPEDFATYYCQQSNTSPLTFGQGTKVEIKRTVAAPSVFIFPPDIVMTQSPDSLAVSLGERATISCRASESVDNYGISFMKWFQQKPGQPPKLLIYAASNQGSGVPDRFSGSGSGTDFTLTISSLQAEDVAVYYCQQSKEVPWTFGGGTKVEIKR
0.0178 µM | DVD452 (bispecific antibody, IgG1, DVD-Ig, outer AB071 / inner AB069; HC linker long, LC linker long; also called DVD452H; DVD452L) VH: EVQLVESGGGLVQPGGSLRLSCAASGFTINASWIHWVRQAPGKGLEWVGAIYPYSGYTNYADSVKGRFTISADTSKNTAYLQMNSLRAEDTAVYYCARWGHSTSPWAMDYWGQGTLVTVSSASTKGPSVFPLAPQVQLVQSGAEVKKPGASVKISCKASGYSFTAYYIHWVKQAPGQGLEWIGYISSYNGATNYNQKFKGRVTFTTDTSTSTAYMELRSLRSDDTAVYYCARDYDYDVGMDYWGQGTLVTVSS VL: DIQMTQSPSSLSASVGDRVTITCRASQVIRRSLAWYQQKPGKAPKLLIYAASNLASGVPSRFSGSGSGTDFTLTISSLQPEDFATYYCQQSNTSPLTFGQGTKVEIKRTVAAPSVFIFPPDIVMTQSPDSLAVSLGERATISCRASESVDNYGISFMKWFQQKPGQPPKLLIYAASNQGSGVPDRFSGSGSGTDFTLTISSLQAEDVAVYYCQQSKEVPWTFGGGTKVEIKR
0.0144 µM | DVD446 (bispecific antibody, IgG1, DVD-Ig, outer AB071 / inner AB069; HC linker short, LC linker short; also called DVD446H; DVD446L) VH: EVQLVESGGGLVQPGGSLRLSCAASGFTINASWIHWVRQAPGKGLEWVGAIYPYSGYTNYADSVKGRFTISADTSKNTAYLQMNSLRAEDTAVYYCARWGHSTSPWAMDYWGQGTLVTVSSASTKGPQVQLVQSGAEVKKPGASVKISCKASGYSFTAYYIHWVKQAPGQGLEWIGYISSYNGATNYNQKFKGRVTFTTDTSTSTAYMELRSLRSDDTAVYYCARDYDYDVGMDYWGQGTLVTVSS VL: DIQMTQSPSSLSASVGDRVTITCRASQVIRRSLAWYQQKPGKAPKLLIYAASNLASGVPSRFSGSGSGTDFTLTISSLQPEDFATYYCQQSNTSPLTFGQGTKVEIKRTVAAPDIVMTQSPDSLAVSLGERATISCRASESVDNYGISFMKWFQQKPGQPPKLLIYAASNQGSGVPDRFSGSGSGTDFTLTISSLQAEDVAVYYCQQSKEVPWTFGGGTKVEIKR
0.00484 µM | DVD484 (bispecific antibody, IgG1, HC linker short, LC linker long; also called DVD484H; DVD484L) VH: EVQLVESGGGLVQPGGSLRLSCAASGFTISDYWIHWVRQAPGKGLEWVAGITPAGGYTYYADSVKGRFTISADTSKNTAYLQMNSLRAEDTAVYYCARFVFFLPYAMDYWGQGTLVTVSSASTKGPEVQLVESGGGLVQPGGSLRLSCAASGFTFTDNWISWVRQAPGKGLEWVGYISPNSGFTYYADSVKGRFTISADTSKNTAYLQMNSLRAEDTAVYYCARDNFGGYFDYWGQGTLVTVSS VL: DIQMTQSPSSLSASVGDRVTITCRASQDVSTAVAWYQQKPGKAPKLLIYSASFLYSGVPSRFSGSGSGTDFTLTISSLQPEDFATYYCQQSYTTPPTFGQGTKVEIKRTVAAPSVFIFPPDIQMTQSPSSLSASVGDRVTITCRASQDVSTAVAWYQQKPGKAPKLLIYSASFLYSGVPSRFSGSGSGTDFTLTISSLQPEDFATTYYCQQSYTGTVTFGQGTKVEIKR
0.00272 µM | DVD478 (bispecific antibody, IgG1, HC linker long, LC linker short; also called DVD478H; DVD478L) VH: EVQLVESGGGLVQPGGSLRLSCAASGFTISDYWIHWVRQAPGKGLEWVAGITPAGGYTYYADSVKGRFTISADTSKNTAYLQMNSLRAEDTAVYYCARFVFFLPYAMDYWGQGTLVTVSSASTKGPSVFPLAPEVQLVESGGGLVQPGGSLRLSCAASGFTFTDNWISWVRQAPGKGLEWVGYISPNSGFTYYADSVKGRFTISADTSKNTAYLQMNSLRAEDTAVYYCARDNFGGYFDYWGQGTLVTVSS VL: DIQMTQSPSSLSASVGDRVTITCRASQDVSTAVAWYQQKPGKAPKLLIYSASFLYSGVPSRFSGSGSGTDFTLTISSLQPEDFATYYCQQSYTTPPTFGQGTKVEIKRTVAAPDIQMTQSPSSLSASVGDRVTITCRASQDVSTAVAWYQQKPGKAPKLLIYSASFLYSGVPSRFSGSGSGTDFTLTISSLQPEDFATTYYCQQSYTGTVTFGQGTKVEIKR

— US20100260668A1 (published 2010)
